Assays:
[1] = target: T1, ICAM-3 (Homo sapiens, UniProt P32942); test: BIAcore binding of soluble αL I-domains to ICAM-3; details: 1:1 interaction model
T1 sequence (P32942 30-485 limits assumed): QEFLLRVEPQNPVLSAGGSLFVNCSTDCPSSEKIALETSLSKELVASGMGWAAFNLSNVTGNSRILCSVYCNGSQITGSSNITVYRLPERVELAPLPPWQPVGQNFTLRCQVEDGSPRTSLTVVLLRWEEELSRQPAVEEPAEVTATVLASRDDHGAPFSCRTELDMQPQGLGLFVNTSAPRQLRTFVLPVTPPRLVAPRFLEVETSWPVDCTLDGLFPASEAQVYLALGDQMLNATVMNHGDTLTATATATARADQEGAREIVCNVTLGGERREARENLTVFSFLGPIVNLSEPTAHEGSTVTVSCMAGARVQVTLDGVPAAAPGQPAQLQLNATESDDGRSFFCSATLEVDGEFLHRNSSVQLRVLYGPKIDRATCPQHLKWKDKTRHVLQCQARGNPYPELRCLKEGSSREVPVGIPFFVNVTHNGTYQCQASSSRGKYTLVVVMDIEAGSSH
Method: Briefly, recombinant mutant αL I-domain stabilized in the open conformation (K287C/K294C), or recombinant wild-type αL I-domain from amino acid residue G128 to Y307, were cloned into pET11b (Novagen) and expressed in E. coli induced with 1 mM IPTG for 4 hours. The recombinant proteins were purified from inclusion bodies by solubilization of inclusion bodies in 6M guanidine HCl and were refolded by dilution in the presence of 0.1 mM Cu^2+/phenanthrolin to enhance formation of disulfide bonds. Protein was concentrated by ammonium sulfate precipitation, dialyzed, and purified over a monoQ ion-exchange column. […] The recombinant proteins were then purified by gel filtration and concentrated by Centriprep. For BIAcore™ analysis, recombinant ICAM-1, ICAM-2 and ICAM-3 Fc chimeras were immobilized on the BIAcore™ sensor chip by an amine-coupling method. Recombinant αL I-domains were flowed in, and BIAcore™ assays were performed with Tris-buffered saline supplemented with 1 mM MgCl2 or 2 mM EDTA, at a flow rate of 10 μl/minute at 25° C.

[2] = system: T-lymphocytes in peripheral lymph node high endothelial venules; test: Intravital microscopy of lymphocyte behaviour in peripheral lymph node high endothelial venules; type: in vivo; details: mouse
Method: Moreover, the ability of the open I-domain mutants to inhibit LFA-1 function in vivo was tested by visualizing microcirculation in the peripheral lymph node (LN) with intravital microscopy. Briefly, a small bolus (20-50 µl) of LN cell suspensions from […] mice were retrogradely injected through a femoral artery catheter and visualized in the subiliac LN by fluorescent epi-illumination from a video-triggered xenon arc stroboscope. After recording control […] cell behavior in the absence of 1-domain, the mouse was pretreated by intra-arterial injection of 1-domain (10 µg/g of weight) 5 minutes before T^GFP cell injection. All scenes were recorded on videotape and off-line analysis was done. The rolling fraction was calculated as percentage of rolling cells amount the total number of TGFβ cells that entered a venule. The sticking (firm adhesion) fraction was determined as the percentage of T^GFP cells becoming firmly adherent for >20 seconds in the number of T^GFP cells that rolled in a venule. Results were semi-quantitatively scored as follows: −: 0%, .+−.: 0-5%, +: 5-20%, ++: 20-40%, +++: 40-60%, ++++: 60-80%, +++++:80-100%.

[3] = system: K562 cells stably expressing wild-type LFA-1; test: Inhibition by soluble I-domains of adhesion of LFA-1 expressing K562 cells to immobilized ICAM-1; type: cell-based, human; details: LFA-1 activated by CBRLFA-1/2; 40 minutes at 37° C.
Method: The activity of the soluble open I-domain to inhibit LFA-1I-dependent adhesion was tested. In one study, K562 cells stably expressing wild-type LFA-1 were fluorescently labeled by BCECF and LFA-1 on the cell surface was activated by the activating monoclonal antibody, CBRLFA-1/2 in L15 media supplemented with FCS. The cells were subsequently incubated in ICAM-1 coated 96-well plastic plates in the presence or absence of 1-domains. After incubation for 40 minutes at 37° C., unbound cells were washed off on a Microplate Autowasher. The fluorescence content of total input cells and the bound cells in each well was quantitated on a Fluorescent Concentration Analyzer. The bound cells were expressed as a percentage of total input cells per sample well.

B1: K287C/K294C: human αL (LFA-1) I-domain with K287 and K294 replaced by cysteines; high affinity locked open; tested in intact LFA-1, cell-surface and soluble forms (protein)
chain: GNVDLVFLFDGSMSLQPDEFQKILDFMKDVMKKLSNTSYQFAAVQFSTSYKTEFDFSDYVKRKDPDALLKHVKHMLLLTNTFGAINYVATEVFREELGARPDATKVLIIITDGEATDSGNIDAAKDIIRYIIGIGKHFQTKESQETLHKFASKPASEFVCILDTFECLKDLFTELQKKIY
notes: human αL (LFA-1) I-domain with K287 and K294 replaced by cysteines; tested in intact LFA-1, cell-surface and soluble forms
[1]
  Koff, open I-domain binding to ICAM-3: 0.0749 s⁻¹
  Kon, open I-domain binding to ICAM-3: 19000 M⁻¹ s⁻¹
[2]; injection of I-domain
  firm adhesion of T-lymphocytes to high endothelial venules: effectively blocked
  lymphocyte rolling mediated by L-selectin and PNAd: not compromised
[2]; intra-arterial I-domain 10 μg/g
  Fraction transmigration: − (−: 0%)
[2]; intra-arterial I-domain 10 μg/g 5 minutes before T-GFP cell injection
  Fraction Rolling: ++++ (++++: 60-80%)
[2]; intra-arterial I-domain 10 μg/g, adherent >20 seconds
  Fraction firm adhesion: ± (.+−.: 0-5%)
[3]
  inhibition of adhesion of LFA-1 expressing cells to immobilized ICAM-1: strongly inhibited

Source: US8241627B2, “Modified polypeptides stabilized in a desired conformation and methods for producing same” (The Center for Blood Research, Inc., priority 2000, dated 2012)
